± gives the half width of the 95% confidence interval.

Data set [1] can be described thus: folding stability dG unfold from chymotrypsin proteolysis; higher = more stable. In a few lines: (§1)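 Designed mini-proteins with no cysteine and under 80 residues were kept only if AlphaFold2 dimer inter-PAE was above 15. In a PA-tagged cDNA display construct, they were digested with trypsin and chymotrypsin and then sequenced. K50 was inferred by Bayesian fitting of counts, and unfolding free energy was derived per protease or combined against a sequence-predicted unfolded-state K50 and a shared folded-state K50.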

A short description of data set [2]: folding stability dG unfold from trypsin proteolysis; higher = more stable. An outline of the steps: as §1
Data set [3] in a line: folding stability dG unfold (combined trypsin and chymotrypsin); higher = more stable. In a few lines: as §1

In the case of “SAGGSADELLDKLGLPPDNIRKIKPVEPNPNGMRQLELEWPYKENGKEWRITIMYSPDGIMIDIEPSAGGSA [r15_813_TrROS]”, the “folding stability dG unfold” value was 1.87 ± 0.053 kcal/mol in data set [1], 0.834 ± 0.061 kcal/mol in data set [2] and 1.57 ± 0.1 kcal/mol in data set [3].
Consider “SAGGSADEVEITLELEVELAPGQKTLTFKLLNLPPGLKFEVEEVELKVVEEDGKLRVEATIRIKKDSAGGSA [r15_321_TrROS_Hall]”, for which the “folding stability dG unfold” value is 4.34 ± 0.17 kcal/mol in data set [1], 2.86 ± 0.17 kcal/mol in data set [2] and 3.72 ± 0.16 kcal/mol in data set [3].
For the sequence “SAGGSADIPSDWTVTPVSSSYDPATGTTTTEETVYDSKGNPQYKITVTTTFDPTTGTTTTTVTYNPSAGGSA [r15_1028_JUSTAS]”, the entries for the “folding stability dG unfold” value in data set [1], in data set [2] and in data set [3] were 2.054 ± 0.018 kcal/mol, 2.37 ± 0.066 kcal/mol and 2.17 ± 0.058 kcal/mol, respectively.
As for “SAGGSADLPPEVGSVTYSQNVPLDEIDEFIQEVIEKLGISPEEIKEIKVSRKTVPGSGVVSLTIVLSAGGSA [r15_934_JUSTAS]”, the entries for the “folding stability dG unfold” value in data set [1], in data set [2] and in data set [3] were 1.18 ± 0.072 kcal/mol, 1.46 ± 0.061 kcal/mol and 1.34 ± 0.13 kcal/mol, respectively.
As to “SAGGSADNLMFMFEFEFSFEWSNPDGEPMTMEVPITVMIPIPIPVPKATPEAMKDPEKAKEAQEEASAGGSA [r15_728_TrROS]”, the “folding stability dG unfold” value was 3.51 ± 0.19 kcal/mol in data set [1], 2.39 ± 0.22 kcal/mol in data set [2] and 3.39 ± 0.32 kcal/mol in data set [3].
As for “SAGGSADNTDVKTEVVGFRLPGYEGLNFLINIQPKDKPKTIFASEAELPLFEEAGIPVVFTSSLPLSAGGSA [r15_783_TrMRF]”, the “folding stability dG unfold” value in data set [1] is -0.0437 ± 0.43 kcal/mol; in data set [2], -0.15 ± 0.29 kcal/mol; in data set [3] it was -0.131 ± 0.24 kcal/mol.
For “SAGGSADYYLIVIEIEKNGKKYKIVLVVSKEDLKKLEEEIKKKFPDVKIKIKVIKFPSKEEALKALSAGGSA [r15_889_TrROS_Hall]”, the “folding stability dG unfold” value in data set [1] was 3.74 ± 0.054 kcal/mol; in data set [2], 2.97 ± 0.1 kcal/mol; in data set [3] it was 3.46 ± 0.12 kcal/mol.
Regarding “SAGGSAEEDEVVTIRAVLENGEVRELEVKLPEGTRIYIPGTGEVREVPFGDEVPVPANSDLLVEPVSAGGSA [r15_152_TrMRF]”, the “folding stability dG unfold” value in data set [1] is -0.642 ± 0.25 kcal/mol; in data set [2], -0.106 ± 0.13 kcal/mol; in data set [3], -0.819 ± 0.62 kcal/mol.
Turning to “SAGGSAEEEEARRLAEELARRLEEEGYEIERVEVRVERLPDGTVRITVRVYRKDGKPVLELEITLPSAGGSA [r15_232_TrROS_Hall]”, the “folding stability dG unfold” value in data set [1] came out at 4.99 ± 0.18 kcal/mol; in data set [2] it was 4.54 ± 0.19 kcal/mol; in data set [3] it was 4.97 ± 0.11 kcal/mol.
For “SAGGSAEEEVYRVRVTVTYRNPETGEVVEEVELVIEVEKGKTVEEVARELAKKLNVDRVEVELVPPSAGGSA [r15_540_TrROS_Hall]”, the “folding stability dG unfold” value in data set [1] stood at 4.52 ± 0.091 kcal/mol; in data set [2], 3.65 ± 0.11 kcal/mol; in data set [3] it was 4.27 ± 0.1 kcal/mol.
As for “SAGGSAEFKIEAEVLSKEVNPETGKPVVKVKIKIEKYNPETGKKEEKEIELELSEEELEKLLKELGSAGGSA [r2_357_TrMRF]”, the entries for the “folding stability dG unfold” value in data set [1], in data set [2] and in data set [3] were 2.93 ± 0.08 kcal/mol, 3.61 ± 0.23 kcal/mol and 3.13 ± 0.13 kcal/mol, respectively.
Regarding “SAGGSAEIVIVESPQQVREAAEPENPDGPPVKVIPMTYEEAKNEIRELKKKGKPMKIVIVIDPGTPSAGGSA [r15_567_TrROS]”, the figures for the “folding stability dG unfold” value in data set [1], in data set [2] and in data set [3] were -0.167 ± 0.24 kcal/mol, -0.547 ± 0.41 kcal/mol and -0.429 ± 0.65 kcal/mol, respectively.
For “SAGGSAEKPEIGAEIVTYKDKDKPLYIVAVPFFDENGNLVGVLVKEFDNPEEAKEFLEALGFGKIESAGGSA [r15_127_TrMRF]”, the “folding stability dG unfold” value was determined as 1.68 ± 0.038 kcal/mol in data set [1], 1.55 ± 0.14 kcal/mol in data set [2] and 1.56 ± 0.12 kcal/mol in data set [3].
Take “SAGGSAEKPPYVIRLEITVKGPGKKVKLDILVDSPEELEAVIQALKDLGFTDIEPKIETFPLEELDSAGGSA [r15_1015_TrMRF]”: the “folding stability dG unfold” value in data set [1] turned out to be 2.42 ± 0.11 kcal/mol; in data set [2], 1.63 ± 0.12 kcal/mol; in data set [3], 2.18 ± 0.17 kcal/mol.
Take “SAGGSAEKPVKIHLMYNPDYYYVRIRNNGGPQSFMFKPDMDIEEIANNFPPGIDEIEIHPMPPEAFSAGGSA [r15_1058_TrROS]”: the results for the “folding stability dG unfold” value in data set [1], in data set [2] and in data set [3] were 0.491 ± 0.099 kcal/mol, 0.251 ± 0.14 kcal/mol and 0.421 ± 0.1 kcal/mol, respectively.
With “SAGGSAENKTIKITFTFKNAKNAIFTINVEKGNKTYKITFNLSDNQELNIEVDYNNTKVSFSIYPASAGGSA [r15_414_TrMRF]”, the “folding stability dG unfold” value in data set [1] was found to be 5.35 ± 0.21 kcal/mol; in data set [2] it was 3.94 ± 0.48 kcal/mol; in data set [3], 4.74 ± 0.43 kcal/mol.
With “SAGGSAEPIGTLTLSFPVKVKVKDADGSIHEYDVTITVTPTVYRLPNGDLVVGLDVEIVFPDGSSLPGSAGG [r13_113_TrMRF]”, the entries for the “folding stability dG unfold” value in data set [1], in data set [2] and in data set [3] were 4.42 ± 0.065 kcal/mol, 3.11 ± 0.1 kcal/mol and 4.16 ± 0.066 kcal/mol, respectively.
In the same order, the values of “SAGGSAERVLIEAESLEEAKAALEELGVTRVEEREVDGKRYLILVDLDDPEKIEVFSREELEKLLKSAGGSA [r15_11_TrROS_Hall]” are 1.78 ± 0.093 kcal/mol, 0.935 ± 0.034 kcal/mol and 1.55 ± 0.083 kcal/mol.
As to “SAGGSAETIEIEIKVKTEEEREKLKEALKKIPSIKEVKELPDGTIKITVSKENLDKIKEALKKAGVSAGGSA [r15_834_TrROS_Hall]”, the “folding stability dG unfold” value in data set [1] stood at 2.25 ± 0.24 kcal/mol; in data set [2], 3.37 ± 0.34 kcal/mol; in data set [3], 3.31 ± 0.65 kcal/mol.
Regarding “SAGGSAETKTVVIEVKLPEELKGLSAEELAALLAEELAKKPGVKEVTVTVERDEETDTLRVTITYPSAGGSA [r15_1029_TrROS_Hall]”, the “folding stability dG unfold” value worked out at 2.94 ± 0.043 kcal/mol in data set [1], 3.21 ± 0.05 kcal/mol in data set [2] and 3.12 ± 0.042 kcal/mol in data set [3].
On to “SAGGSAETTKDPNKPVETISTPGTLIKITKYPDSYNATIEPLDENGNVTGSESGPIKSIEEVLRQLSAGGSA [r15_288_JUSTAS]”, for which the “folding stability dG unfold” value was 0.597 ± 0.067 kcal/mol in data set [1], -0.615 ± 0.16 kcal/mol in data set [2] and 0.216 ± 0.12 kcal/mol in data set [3].
In the same order, the values of “SAGGSAETVVVRIEVRDPETGETLELEIEVRRDMTEEELRELAEELARALKEAGYEVRVEVVRLPPSAGGSA [r15_268_TrROS_Hall]” are 2.26 ± 0.11 kcal/mol, 3.11 ± 0.073 kcal/mol and 2.61 ± 0.091 kcal/mol.
For “SAGGSAEVERFEIPVTSEEELEKLIEELKKAPGVLSVEKTPDGTLVVTVPKGKSDIVEEAAKKAGLSAGGSA [r15_834_JUSTAS]”, the entries for the “folding stability dG unfold” value in data set [1], in data set [2] and in data set [3] were 3.17 ± 0.11 kcal/mol, 2.7 ± 0.12 kcal/mol and 2.97 ± 0.09 kcal/mol, respectively.
As for “SAGGSAEVTFTLPDGTPFSGEVTRFPDSIRVTLTVGSTPASFEMDPSTNLITGNIPGRPLTVSLGLSAGGSA [r2_194_JUSTAS]”, the “folding stability dG unfold” value in data set [1] turned out to be 1.11 ± 0.1 kcal/mol; in data set [2], 1.17 ± 0.03 kcal/mol; in data set [3] it was 1.18 ± 0.053 kcal/mol.
In the case of “SAGGSAEVTITVEYDEETGVLKITITVPPGVTVEEIAEALKKLVPDVKVEKNEDGTITVYVKLPEKSAGGSA [r15_1057_TrROS_Hall]”, the “folding stability dG unfold” value in data set [1] is 4.36 ± 0.16 kcal/mol; in data set [2] it was 2.44 ± 0.16 kcal/mol; in data set [3], 4.07 ± 0.33 kcal/mol.
“SAGGSAFKIKIPEDLRGAPPGGKIEIEFPNGVRAEIEYKDGEWVIEVKHYGPNGKPVEEHEFRIKVSAGGSA [r15_558_TrROS]”: the “folding stability dG unfold” value in data set [1] is 0.94 ± 0.18 kcal/mol; in data set [2], 1.47 ± 0.046 kcal/mol; in data set [3], 1.28 ± 0.22 kcal/mol.
On to “SAGGSAFPIRIKDDNQKKIMIPFDSPEELEDLLKEPGIDKVDPEPNPDGNQPWFTIDLPNGKIELWSAGGSA [r15_632_TrROS]”, for which the “folding stability dG unfold” value in data set [1] is -1.04 ± 0.66 kcal/mol; in data set [2] it was -1.53 ± 0.5 kcal/mol; in data set [3], -0.826 ± 0.38 kcal/mol.
As to “SAGGSAGEAYSVVKASWNPETGTLNIVVKNPSTGEQKVYNIKPGNPVIDFPEGSVIESIEINPSPYSAGGSA [r15_959_TrMRF]”, the “folding stability dG unfold” value in data set [1] stood at 1.03 ± 0.2 kcal/mol; in data set [2], 0.237 ± 0.095 kcal/mol; in data set [3], 0.835 ± 0.11 kcal/mol.
In the same order, the values of “SAGGSAGGAIGTIDYNGKPLRLSVYLPDNPRVFEYPVDGDPLVFAAELNRETGFDVTDVVVVGGSAGGSAGG [r6_762_TrMRF]” are 0.033 ± 0.18 kcal/mol, 0.291 ± 0.098 kcal/mol and 0.132 ± 0.14 kcal/mol.
In the same order, the values of “SAGGSAGGAPILPEVKKIGFEKLPNGEYKVTIYVKGGKKLAEITFPPNTTIEQAVEDAIEALKSSAGGSAGG [r6_435_TrMRF]” are 2.38 ± 0.048 kcal/mol, 2.3 ± 0.063 kcal/mol and 2.28 ± 0.091 kcal/mol.
“SAGGSAGGAPLMIMLEAEWKREPDPNGDKRRKVKLRVSIMTPRPDPDGKPNMHMISIPITFKVKSAGGSAGG [r6_224_TrROS]”: the results for the “folding stability dG unfold” value in data set [1], in data set [2] and in data set [3] were 4.08 ± 0.07 kcal/mol, 2.87 ± 0.087 kcal/mol and 3.51 ± 0.2 kcal/mol, respectively.
With “SAGGSAGGAPPDARVTIEVELKNPDGTPISEEEVIEKLKPLGLEPVEIDVDPETGKVTITVRVLSAGGSAGG [r6_774_JUSTAS]”, the “folding stability dG unfold” value is 1.04 ± 0.092 kcal/mol in data set [1], 1.69 ± 0.053 kcal/mol in data set [2] and 1.41 ± 0.083 kcal/mol in data set [3].
Consider “SAGGSAGGDGPGAPPVPRIRIKVEFEHNGKKVTWEFRSLDDMKEQVKERFKENGLKVKITEIEWSAGGSAGG [r6_869_TrROS]”, for which the “folding stability dG unfold” value came to 2.04 ± 0.041 kcal/mol in data set [1], 1.67 ± 0.06 kcal/mol in data set [2] and 1.88 ± 0.1 kcal/mol in data set [3].
Consider “SAGGSAGGDPRPVRVEVLRLEYDPPSGLLRALVRNPENDLLVFATLRIFPDPAGAELRVESVVFSAGGSAGG [r6_70_TrMRF]”, for which the “folding stability dG unfold” value was determined as 2.85 ± 0.1 kcal/mol in data set [1], 1.39 ± 0.071 kcal/mol in data set [2] and 2.49 ± 0.11 kcal/mol in data set [3].
Consider “SAGGSAGGDSIEFIIPYDDMPKEEAKRRVRWIANGFAEHNPGKPIEIEIHVIPVPPPPSPEDKNSAGGSAGG [r6_729_TrROS]”, for which the entries for the “folding stability dG unfold” value in data set [1], in data set [2] and in data set [3] were -0.467 ± 0.66 kcal/mol, -0.0761 ± 0.16 kcal/mol and -0.163 ± 0.16 kcal/mol, respectively.
In the same order, the values of “SAGGSAGGDTITIWIPGMPLEELRDLLKAFFPGKDVSVEYDPEHGSFVLTVNGKKITIHIMPPNSAGGSAGG [r6_609_TrROS]” are 4.45 ± 0.061 kcal/mol, 3.89 ± 0.1 kcal/mol and 4.45 ± 0.086 kcal/mol.

These data come from the supplement of paper PMC12764529.
